# Experiments:
# MddM1 = test system: T1, MddM1; test: GC detection of DMS, Michaelis-Menten fit; type: biochemical, Mycolicibacterium poriferae; settings: pH 9, 40 °C
# T1 construct: full length (210 aa, ~23 kDa native), GST-tagged in pGEX-4T-1, expressed in E. coli BL21(DE3), glutathione Sepharose purified; no tag removal told
# purified protein = substrate: C[S+](CC[C@H](N)C(=O)O)C[C@H]1O[C@@H](n2cnc3c(N)ncnc32)[C@H](O)[C@@H]1O; test: purified protein; settings: pH 8, 30 °C, MeSH as co-substrate fixed at 1 mM, methyl donor
# [1] = substrate: CS; test: GC detection of DMS, Michaelis-Menten fit; type: biochemical, Thermobispora bispora; settings: pH 8, 30 °C, SAM fixed at 1 mM, GST-tagged enzyme 2 µg
molecule,measurement,setting,value
C[S+](CC[C@H](N)C(=O)O)C[C@H]1O[C@@H](n2cnc3c(N)ncnc32)[C@H](O)[C@@H]1O (some centres unmarked) [S-adenosine-methionine],Km,"MddM1; MeSH as co-substrate fixed at 1 mM, methyl donor",110 ± 50 µM
CS [methanethiol],Km,"MddM1; SAM fixed at 1 mM, GST-tagged enzyme 1 µg",760 µM
TbMddM2 (Thermobispora bispora DSM 43833) (protein) MSAADVLPVNHHADHPGFSGVIGTVIGLIFLLAGRPTARLAADLAAVGPGDRVADIGCGPGTAVREAARRGAQATGVDPAPVMLRWARMAGRGEAMEWREGTAERVPLPDGWATVWWSLATVHHWKDVEAGLREAYRVLAPGGRLLAMERQIAPGATGQASHGWTRRQADAFADHCRAAGFTDVTVTAHRAGRRDVWVVTATRP,Km,purified protein,20 ± 10 µM
same,kcat,purified protein,0.05 ± 0.01 s⁻¹
same,Km,[1],220 µM
